Key:
Test in all cases: cell-based or functional assay
[1] = biological target: FGFR2-IIIb N550K expressed on FDCP-1 cells (human), P21802
[2] = biological target: FGFR2-IIIb S252W expressed on FDCP-1 cells (human), P21802
[3] = biological target: wild type FGFR2-IIIb expressed on FDCP-1 cells (human), P21802

B1: antibody 4B9 (antibody)
heavy: EVQLQQSGTVLARPGASVKMSCKTSGYTFTSYWMHWVKQRPGQGLEWIGAIYPGNSDTDYSQKFKGKATLTAVTSATTAYMELSSLTNEDSAVYYCSKFDYWGQGTTLTVSSAKTTPPSVYPLAPGSAAQTNSMVTLGCLVKGYFPEPVTVTWNSGSLSSGVHTFPAVLQSDLYTLSSSVTVPSSTWPSQTVTCNVAHPASSTKVDKKIVPRDCGCKPCICTVPEVSSVFIFPPKPKDVLTITLTPKVTCVVVDISKDDPEVQFSWFVDDVEVHTAQTQPREEQFNSTFRSVSELPIMHQDWLNGKEFKCRVNSAAFPAPIEKTISKTKGRPKAPQVYTIPPPKEQMAKDKVSLTCMITDFFPEDITVEWQWNGQPAENYKNTQPIMDTDGSYFVYSKLNVQKSNWEAGNTFTCSVLHEGLHNHHTEKSLSHSPGK
light: QIVLTQSPALMSASPGEKVTMTCSASSSVNYMYWYQQKPRSSPKPWIYLTSNLASGVPARFSGRGSGTSYSLTISSMEAEDAATYYCQQWSSNPYTFGGGTKLEIKRADAAPTVSIFPPSSEQLTSGGASVVCFLNNFYPRDINVKWKIDGSERQNGVLNSWTDQDSKDSTYSMSSTLTLTKDEYERHNSYTCEATHKTSTSPIVKSFNRNEC
With B1 the IC50 of inhibition of cell proliferation (MTT assay) [1] was 8.1 nM, the IC50 of inhibition of cell proliferation (MTT assay) [2] was 3 nM and the IC50 of inhibition of cell proliferation (MTT assay) [3] was 0.3 nM.
